Ends that are not written are not given here. * marks the point of attachment. FITC = O=C1OC2(c3ccc(O)cc3Oc3cc(O)ccc32)c2ccc(NC(=S)*)cc21; Ahx = NCCCCCC(=O)O

In assay [1] the target is T1, GST-BCL-XL (human, UniProt Q07817 1-212, limits assumed).
T1 construct: Bacterially expressed GST fusion; not shown: GST tag
Kind of assay: fluorescence polarization, FITC peptide with GST-BCL-XL. As to the method:
(§1) Binding assays were performed using fluorescence polarization as previously described (Letai et al., 2002). A minimum of three independent experiments were used to determine each dissociation constant.
(§2) To determine selectivity in interactions among antiapoptotic BCL-2 family members and BH3 domains of BH3-only proteins, fluorescence polarization binding assays (FPA) were used. Antiapoptotic proteins BCL-2, BCL-XL, MCL-1, BCL-w, and BFL-1 were purified from transfected bacteria as GST fusion proteins. Oligopeptides used for FPA were tagged with an N-terminal FITC moiety.

Assay [2] concerns the target T2, GST-BCL-2 (human, UniProt P10415 1-218, limits assumed).
T2 construct: Bacterially expressed GST fusion; not shown: GST tag
Kind of assay: fluorescence polarization, FITC peptide with GST-BCL-2. As to the method: as §1, §2

The target of assay [3] is T3, GST-BFL-1 (human, UniProt Q16548 1-153, limits assumed).
T3 construct: Bacterially expressed GST fusion; not shown: GST tag
T3 sequence (looked up): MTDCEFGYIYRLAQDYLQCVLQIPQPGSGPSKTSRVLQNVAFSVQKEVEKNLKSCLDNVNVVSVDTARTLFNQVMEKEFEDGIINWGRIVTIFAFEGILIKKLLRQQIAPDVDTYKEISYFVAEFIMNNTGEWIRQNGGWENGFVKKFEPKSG
Kind of assay: fluorescence polarization, FITC peptide with GST-BFL-1. On the procedure: as §1, §2
For orientation: Fluorescence polarisation rises when a labelled molecule tumbles more slowly, as on binding a larger partner.

For assay [4], the target named is T4, GST-BCL-w (human, UniProt Q92843 1-164, limits assumed).
T4 construct: Bacterially expressed GST fusion; not shown: GST tag
T4 sequence (looked up): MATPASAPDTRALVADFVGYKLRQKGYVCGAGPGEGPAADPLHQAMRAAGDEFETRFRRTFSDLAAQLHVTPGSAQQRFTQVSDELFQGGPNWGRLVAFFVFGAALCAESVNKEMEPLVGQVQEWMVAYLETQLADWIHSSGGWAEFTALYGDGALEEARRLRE
Kind of assay: fluorescence polarization, FITC peptide with GST-BCL-w. As to the method: as §1, §2

The target of assay [5] is T2, GST-BCL-2. Kind of assay: fluorescence polarization displacement of fluorescein BIM BH3 from 0.5 uM GST-BCL-2. On the procedure:
as §1

Assay [6] concerns the target T5, GST-MCL-1 (human, UniProt Q07820 1-327, limits assumed).
T5 construct: not shown: GST tag
Kind of assay: fluorescence polarization displacement of fluorescein BIM BH3 from 0.1 uM GST-MCL-1. On the procedure: as §1

Assay [7] concerns the target T2, GST-BCL-2. Kind of assay: fluorescence polarization (Table 2b) as retold.

T2 sequence (P10415 1-218 limits assumed): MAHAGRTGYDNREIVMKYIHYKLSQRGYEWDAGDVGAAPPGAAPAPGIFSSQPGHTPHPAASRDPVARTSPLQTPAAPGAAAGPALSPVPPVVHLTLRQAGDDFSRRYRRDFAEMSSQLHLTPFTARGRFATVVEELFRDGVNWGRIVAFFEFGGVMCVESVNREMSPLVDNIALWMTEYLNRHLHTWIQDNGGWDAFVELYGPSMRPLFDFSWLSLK
T1 sequence (Q07817 1-212 limits assumed): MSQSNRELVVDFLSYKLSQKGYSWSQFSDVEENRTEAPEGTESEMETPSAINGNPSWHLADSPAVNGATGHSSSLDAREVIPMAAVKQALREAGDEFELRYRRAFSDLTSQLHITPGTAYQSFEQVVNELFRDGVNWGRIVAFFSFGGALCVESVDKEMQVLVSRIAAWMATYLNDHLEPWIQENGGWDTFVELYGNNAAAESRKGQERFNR
T5 sequence (Q07820 1-327 limits assumed): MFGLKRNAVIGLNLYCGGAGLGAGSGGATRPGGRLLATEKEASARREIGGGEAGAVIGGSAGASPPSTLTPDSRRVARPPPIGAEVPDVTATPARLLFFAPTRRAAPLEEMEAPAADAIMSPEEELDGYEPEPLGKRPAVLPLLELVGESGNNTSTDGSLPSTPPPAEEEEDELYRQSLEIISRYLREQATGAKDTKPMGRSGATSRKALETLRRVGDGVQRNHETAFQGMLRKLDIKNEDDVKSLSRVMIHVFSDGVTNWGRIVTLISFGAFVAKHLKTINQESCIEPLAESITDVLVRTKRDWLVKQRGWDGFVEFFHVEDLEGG

B1: NOXA B BH3 peptide, N-terminal fluorescein tagged (peptide)
peptide: {FITC-Ahx}-PADLKDECAQLRRIGDKVNL
Regarding B1, the binding result in assay [1], in assay [2], in assay [3] and in assay [4] was “no binding” in each case.

B2: NOXA A BH3 peptide (no tag stated) (peptide)
peptide: AELPPEFAAQLRKIGDKVYC
notes: Peptide as titrated in the displacement assay and used on mitochondria and cells
For B2, the binding result in assay [5] is given as “no binding”.

B3: BAD BH3 peptide (no tag stated) (peptide)
peptide: LWAAQRYGRELRRMSDEFEGSFKGL
notes: as for B2
Consider B3, for which, in assay [6], the binding result is “no binding”.

B4: NOXA A BH3 peptide, N-terminal fluorescein tagged (peptide)
peptide: {FITC-Ahx}-AELPPEFAAQLRKIGDKVYC
Regarding B4, the binding result in assay [1], in assay [2], in assay [3] and in assay [4] was “no binding” in each case.

B5: BIK BH3 peptide, N-terminal fluorescein tagged (peptide)
peptide: {FITC-Ahx}-MEGSDALALRLACIGDEMDV
Take B5: in assay [7], the “fold lower affinity than BAD BH3” value is around 10 fold and the “fold lower affinity than BAD, PUMA or BMF BH3” value was around 10 fold.

The values are drawn from patent publication US20160258933A1 (Dana-Farber, published 2016).
